The record followed here is the Human Domainome abundance scans (Beltran et al. 2025).

± gives the uncertainty stated by the source.

First the molecules themselves.
B1: Transcription factor SOX-4, residues 60 to 127; numbered along this chain, Q06945 (parent)
chain: KRPMNAFMVWSQIERRKIMEQSPDMHNAEISKRLGKRWKLLKDSDKIPFIREAERLRLKHMADYPDYK

Variants of B1 are the subject of the series. Kind of series: abundance fitness (aPCA) (normalised: wild type 0, dead -1); higher = more abundant; growth selection in yeast, the domain comes from the species named. The conditions noted are these: Homo sapiens.
Consider R33N, for which the abundance fitness came to 0.126 ± 0.1. Then R33C, with 0.083 ± 0.082; and R33D, with 0.483 ± 0.36; and R37Q, with -0.093 ± 0.21.

Regarding A6E, the abundance fitness was -0.656 ± 0.074. Then A6M, with -1.01 ± 0.098; and A6L, with -0.843 ± 0.078; and A6F, with -0.671 ± 0.095. Then A6I, with -0.794 ± 0.083. Regarding A6G, the abundance fitness was -0.079 ± 0.04. Q12A: the abundance fitness was -0.138 ± 0.1.

In the case of Q12L, the abundance fitness was -0.194 ± 0.055. For the variant Q12T, the abundance fitness is -0.166 ± 0.079.

Take Q12H: the abundance fitness is -0.116 ± 0.23. For the variant Q12F, the abundance fitness was -0.494 ± 0.1. For S22Y, the abundance fitness is 0.066 ± 0.054.

S22A: the abundance fitness was -0.074 ± 0.082. S22P: the abundance fitness was -0.745 ± 0.18.

S22W: the abundance fitness amounted to 0.016 ± 0.053. Then S22E, with -0.027 ± 0.052; and E52C, with -0.353 ± 0.11. Then E52K, with -0.515 ± 0.12.

As to E52S, the abundance fitness was -0.712 ± 0.11. Under S44A stands 0.035 ± 0.053; under S44H, -0.205 ± 0.1; under I18M, -0.169 ± 0.066.

With I18V, the abundance fitness is -0.482 ± 0.086.

Turning to D24F, the abundance fitness was -0.134 ± 0.043.

As to D24C, the abundance fitness was -0.335 ± 0.061. For the variant D24R, the abundance fitness was -0.307 ± 0.044. Take L41S: the abundance fitness is -0.779 ± 0.1.

Consider L41A, for which the abundance fitness is -0.875 ± 0.12.

In the case of P3Q, the abundance fitness is -0.048 ± 0.065. Consider P3I, for which the abundance fitness is -0.416 ± 0.079. Under P3S stands -0.122 ± 0.041. Then D45L, with -0.378 ± 0.09; and D45H, with -0.429 ± 0.32; and D45M, with -0.395 ± 0.14. Under D45A stands -0.239 ± 0.071; under D45T, -0.576 ± 0.11.

As to M8I, the abundance fitness was -0.181 ± 0.044. On to M8F, for which the abundance fitness is -0.133 ± 0.041. Under M8D stands 0.088 ± 0.049; under S31V, -0.021 ± 0.034; under D66I, -0.13 ± 0.19. Then K39H, with -0.506 ± 0.11. Then K39L, with -0.244 ± 0.048; and K39G, with -0.098 ± 0.04. In the case of K39F, the abundance fitness was -0.481 ± 0.062. Under W10V stands -0.621 ± 0.1; under W10C, -1.03 ± 0.43; under W10S, -0.893 ± 0.14.

Consider M25V, for which the abundance fitness was -0.125 ± 0.065. In the case of M25Y, the abundance fitness is -0.679 ± 0.21. As for A62F, the abundance fitness is -0.22 ± 0.059. With P48Y, the abundance fitness is -0.566 ± 0.1.

On to P48W, for which the abundance fitness is -0.493 ± 0.069. In the case of P48G, the abundance fitness was -0.51 ± 0.042. For P48E, the abundance fitness was -0.189 ± 0.049.

On to A53M, for which the abundance fitness was -0.585 ± 0.088. Then N5V, with -0.828 ± 0.16; and E20C, with -0.478 ± 0.19. As for E20D, the abundance fitness is -0.255 ± 0.16.

Regarding E20T, the abundance fitness was -0.296 ± 0.073. Under L34W stands -0.713 ± 0.11; under E54P, -0.802 ± 0.11.

On to E54R, for which the abundance fitness was -0.469 ± 0.051. Under E54D stands -0.264 ± 0.046; under E54G, -0.514 ± 0.044. Then Y64A, with -0.094 ± 0.093; and Y64R, with 0.035 ± 0.068.

As to K68C, the abundance fitness was -0.242 ± 0.17. Under K68T stands -0.436 ± 0.45. For the variant K68R, the abundance fitness was -0.068 ± 0.079. Take R55H: the abundance fitness is -0.284 ± 0.073. Then G35S, with 0.173 ± 0.035.

As to G35W, the abundance fitness was 0.142 ± 0.058. Turning to G35L, the abundance fitness was 0.168 ± 0.041. Turning to G35V, the abundance fitness was determined as 0.134 ± 0.037.

With D63K, the abundance fitness was -0.128 ± 0.06.

In the case of D63F, the abundance fitness is -0.283 ± 0.05. Then D63W, with -0.179 ± 0.061; and D63V, with -0.224 ± 0.038; and D63T, with -0.104 ± 0.041. Then D63M, with 0.055 ± 0.052; and R2D, with -0.053 ± 0.13. R2K: the abundance fitness was -0.135 ± 0.12. As to R2M, the abundance fitness is -0.088 ± 0.062. Regarding P23V, the abundance fitness was -0.634 ± 0.06.

As for P23F, the abundance fitness was -0.97 ± 0.12. Then P23S, with -0.47 ± 0.047. Then P23I, with -0.568 ± 0.074; and P23T, with -0.593 ± 0.07; and P23N, with -0.554 ± 0.057. Under K59G stands -0.045 ± 0.038; under K59Y, -0.277 ± 0.053. As for K59L, the abundance fitness worked out at 0.02 ± 0.044. Regarding K59A, the abundance fitness was -0.04 ± 0.064. Then R16A, with -0.011 ± 0.048; and R16D, with -0.223 ± 0.054. Under K32F stands -0.281 ± 0.045.

Turning to K32I, the abundance fitness is -0.225 ± 0.063. Under K32A stands -0.108 ± 0.047; under R57F, 0.056 ± 0.22; under R57V, -0.413 ± 0.072. With R57C, the abundance fitness is -0.048 ± 0.13. For the variant R57W, the abundance fitness is -0.32 ± 0.11. Then I30H, with -1.11 ± 0.17. Consider S11L, for which the abundance fitness was -0.432 ± 0.045. Then K46Q, with -0.701 ± 0.14. Under K46I stands -0.553 ± 0.072; under K46F, -0.995 ± 0.11. As for K46H, the abundance fitness is -1.09 ± 0.14. Consider K46D, for which the abundance fitness is -0.524 ± 0.072. As for K46R, the abundance fitness was -0.237 ± 0.04. Then F49S, with -0.763 ± 0.098; and F49Y, with -0.044 ± 0.11; and H60N, with -0.076 ± 0.24. Regarding H60S, the abundance fitness was found to be 0.041 ± 0.06.

Turning to H60I, the abundance fitness is -0.408 ± 0.2.

Regarding H60P, the abundance fitness was -0.045 ± 0.079.

As for M19R, the abundance fitness was -0.236 ± 0.05.

Consider H26G, for which the abundance fitness was -0.082 ± 0.071. Consider H26D, for which the abundance fitness is 0.191 ± 0.094. Regarding I13E, the abundance fitness was -0.163 ± 0.1. Turning to I13T, the abundance fitness was -0.235 ± 0.095. Regarding Y67G, the abundance fitness stood at 0.119 ± 0.081. On to Y67A, for which the abundance fitness was determined as 0.028 ± 0.093. Under L56K stands -0.174 ± 0.15; under L56T, -0.272 ± 0.09. Then K42A, with -0.066 ± 0.079; and I50E, with 0.009 ± 0.081; and I50Y, with 0.041 ± 0.28. Then K1M, with -0.214 ± 0.15; and K1G, with -0.054 ± 0.068; and K1S, with -0.011 ± 0.15. Take K1E: the abundance fitness was -0.317 ± 0.12. As for I47Q, the abundance fitness was -0.006 ± 0.074. For the variant I47D, the abundance fitness was -0.128 ± 0.054. Under I47S stands -0.319 ± 0.041; under I47A, 0.031 ± 0.063; under M61R, -0.134 ± 0.057.

M61I: the abundance fitness is -0.238 ± 0.072. Then M61V, with -0.073 ± 0.072; and D43F, with -0.087 ± 0.041. Turning to D43I, the abundance fitness is -0.226 ± 0.058. With D43C, the abundance fitness was -0.37 ± 0.058. Then M4Q, with -0.412 ± 0.11; and M4N, with -0.265 ± 0.11; and M4Y, with -0.236 ± 0.076. As for V9M, the abundance fitness is -0.266 ± 0.13. On to V9Q, for which the abundance fitness is -0.76 ± 0.16. Then V9I, with 0.066 ± 0.057; and V9E, with -0.856 ± 0.19; and V9R, with -1 ± 0.14. Then N27F, with -0.245 ± 0.057. Then N27D, with 0.147 ± 0.045; and L40I, with -0.468 ± 0.064; and L40P, with -1.29 ± 0.41. Regarding L40G, the abundance fitness was -0.08 ± 0.041.

In the case of L40F, the abundance fitness was -0.34 ± 0.069.

For Q21I, the abundance fitness was -0.128 ± 0.088. As to Q21L, the abundance fitness was -0.349 ± 0.062. Under R15D stands -0.752 ± 0.092; under R15V, -0.495 ± 0.044; under R15K, -0.022 ± 0.052. Regarding R15I, the abundance fitness was -0.25 ± 0.057.
